Measurements published in article PMC11006394.

What was measured:
[1] = biological target: Cno FHA-DIL-PDZ protein (aa 372–1110) (Drosophila) (UniProt Q24279); assay: SEC-MALS; Superdex 200, 0.5 ml/min; for the DIL domain: 100 ul at 5.0 mg/ml injected, 300 mM NaCl, 25 mM Tris-HCl pH 8.5, 1 mM MgCl2, 0.1% beta-mercaptoethanol, 0.2 g/l sodium azide; monomer and homodimer peaks; conditions for FHA-DIL-PDZ not given
[2] = biological target: Cno DIL domain (aa 613–1006) (Drosophila) (UniProt Q24279); assay: as above

percent of injected protein eluted as homodimer [1] [%] | stoichiometry N [1] | percent of injected protein eluted as homodimer [2] [%] | stoichiometry N [2] | Substance
7 | 2 |  |  | Cno FHA-DIL-PDZ protein (aa 372–1110) (from UniProt Q24279 372-1110) (domain or fragment)
 |  | 27 | 2 | Cno DIL domain (aa 613–1006) (from UniProt Q24279 613-1006) (domain or fragment)
